Measured values published in the supplement of paper PMC12764529.
± gives the half width of the 95% confidence interval.

Tests used:
[1] = folding stability dG unfold from trypsin proteolysis; higher = more stable
In short: (§1)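 K50 was inferred by Bayesian fitting of sequencing counts obtained after protease digestion of designed mini-proteins. Unfolding free energy was derived by comparison with a sequence-predicted unfolded-state K50 and a shared folded-state K50, for each protease or both combined. The mini-proteins were under 80 residues, had no cysteine, were carried in a PA-tagged cDNA display construct, and were kept only if AlphaFold2 dimer inter-PAE exceeded 15.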

[2] = folding stability dG unfold (combined trypsin and chymotrypsin); higher = more stable
In short: as §1

[3] = folding stability dG unfold from chymotrypsin proteolysis; higher = more stable
In short: as §1

Sequence | folding stability dG unfold [1] [kcal/mol] | folding stability dG unfold [2] [kcal/mol] | folding stability dG unfold [3] [kcal/mol]
SAGGSAGGSAGSMTSISVDVPVPGKNVVTVTVTLPPNTTTVTITVEPLPNGELKVTVETSSAGGSAGGSAGG [r11_657_JUSTAS] | 2.89 ± 0.07 | 2.78 ± 0.1 | 2.5 ± 0.061
SMTVEVELTVTVEVVDPKTGKKKTVTVKVTVKVRVTEVKTKDGKTEVKVELSEEALEEARRLAEELAKKKSA [r9_698_TrROS_Hall] | 3.13 ± 0.13 | 2.89 ± 0.46 | 2.95 ± 0.38
SAGGSAGGMKLTLRIEAPREEVERLAKEFEAQGIKVTVKPRPDGRVELTLEIDLPDTDKSLFDPSAGGSAGG [r6_8_TrMRF] | 2.49 ± 0.17 | 2.55 ± 0.12 | 2.67 ± 0.057
SAGDWYIVIKITIYHPNKREREFPIVFDWKDGKIEIAPEFLQNIAEELGLPPNMKIEIEIVEIMPPNDSAGG [r19_287_TrROS] | 1.75 ± 0.12 | 2.43 ± 0.55 | 3.22 ± 0.099
SALPNLKIEITLNEDGTITITVTANGEVIATATLTVTLPPPPVEKEVLDANGNKRTVRYDAKTGKAEVFDSA [r9_343_TrROS_Hall] | 0.106 ± 0.17 | 0.0728 ± 0.47 | 0.065 ± 0.29
SAGGSASVKVEETVEFLPGGVVKTTTRTFFPDGTVTTTDTVTALPPVPVYDISSPENLSPALERLASAGGSA [r15_1018_JUSTAS] | 0.543 ± 0.028 | 0.909 ± 0.052 | 1.16 ± 0.026
SAGGKKYVLIKVKVRVEKEVNGEKKEVELELEILVPVDEETGKTPEEKAKELAKKLPPEVTEVKIEPVSAGG [r13_335_TrROS_Hall] | 1.63 ± 0.15 | 2.21 ± 0.31 | 2.86 ± 0.061
SAGGSAGGSAGMETTVLEEVPPEELAKGQTRLEKLPDGTIIERTVAPEGEVVETKTIPPKSAGGSAGGSAGG [r17_2_JUSTAS] | 1.94 ± 0.21 | 1.09 ± 0.48 | 0.421 ± 0.12
SAGGSAGGSIPEILKKIGISPEVVTEVEVTPVEKLPDSLVVKVTYTYKLPNGTTETKTVTVPIGSAGGSAGG [r6_776_JUSTAS] | 2.14 ± 0.091 | 2.66 ± 0.13 | 2.76 ± 0.034
SAGGSAMPEDTPFVVTKTTEYRLPDGSRVTFEPVPETGKTLVTFTPPDGSSERVWLTPEEAEKLLASAGGSA [r15_2_JUSTAS] | 1.11 ± 0.02 | 1.22 ± 0.11 | 1.3 ± 0.1
FKFKITELSFNPEWGYIHFNVKVEGPDGQPQTFPIMIRIRIPPPPPPPPPPMRADPDGKVRNPDDGKEHDAS [r1_270_TrROS] | 3.3 ± 0.1 | 4.26 ± 0.63 | 4.9 ± 0.27
SAGGSAGGSAGGSPDGWKFKMEMFTVKVPGAKITIPDGKSITLPPGKEVTIMIMTYVPPSAGGSAGGSAGGS [r4_26_TrROS] | 2.25 ± 0.068 | 3.47 ± 0.092 | 3.81 ± 0.086
SAGGSAGGSAGGKPNEVRVANIPIYRRLENGGWELIRPLPIVVPVDASVDFVLDAFKKYSAGGSAGGSAGGS [r10_470_TrMRF] | 0.392 ± 0.041 | 0.658 ± 0.048 | 0.815 ± 0.076
SAGGKKKKVITVEVPPEATAEELLAALKKADKVFIRTKDGKVREIKVGEKVSPEELKVKPGDTVEIYVSAGG [r13_399_TrROS_Hall] | 1.12 ± 0.12 | 1.53 ± 0.24 | 1.74 ± 0.096
SMVIEINEDGTVKVYLPEELKGLSAEEIEELIKKLFGPNVKIEKIEIFEPPPKLTEEEKEELKKLPKEEKSA [r9_1011_TrROS_Hall] | 0.866 ± 0.17 | 1.41 ± 0.33 | 1.76 ± 0.14
SAGGSAPPPGSTQVIVVEKRDAPPEEAAQEIADEIKEKYPNTSVEVQEEEVPPGEPVVRVTVYIPPSAGGSA [r15_916_JUSTAS] | 0.845 ± 0.14 | 0.559 ± 0.48 | 0.945 ± 0.15
SAGGSAGGSAGGDNTKTLVLVIKVDENVTPEEIKKKLKDLGFKNVKIEKVGNYAVVTVSSAGGSAGGSAGGS [r10_868_TrMRF] | 2.58 ± 0.074 | 2.92 ± 0.052 | 3.149 ± 0.03
SAGGSAGGKPVTVEVDIVVKPGDTIEFPPGAKVEIVEKKEVEVNGKKYQVFKIKVTLPPGEEALSAGGSAGG [r6_454_TrROS_Hall] | 2.31 ± 0.12 | 2.72 ± 0.23 | 2.854 ± 0.026
SSSLDYVFKDIDPSSPNKLTLSEIKPVPESDKVVNKIVFPTKTILVTFDSAEDAEAHIGLLLKLFGSPPESA [r9_258_TrMRF] | 0.66 ± 0.044 | 0.852 ± 0.1 | 0.924 ± 0.12
SAGGSAIFVVKIEPPNGNPITFMFWFKTPEEAESQVEEIAEQLPPDWKVEVEYIPAEDLKNGKPFFSAGGSA [r15_469_TrROS] | 2.13 ± 0.045 | 2.2 ± 0.068 | 2.13 ± 0.043
SAGGSAGGPLVVGRGTFPDGFTADAELRVPDSSETFYRTIEPGASLDEIPENYEVANITLSPAGSAGGSAGG [r6_758_TrMRF] | -0.289 ± 0.12 | -0.162 ± 0.13 | -0.176 ± 0.13

Sequence | folding stability dG unfold [1] [kcal/mol] | folding stability dG unfold [2] [kcal/mol] | folding stability dG unfold [3] [kcal/mol]
SAGIEIDIEVDPENGFIKITAKIHNPDGNPVYEMEMWIPVDNGRIYRVDIRINPDNGKIELDIEPFPLNSAG [r5_34_TrROS] | 3.48 ± 0.29 | 3.79 ± 0.26 | 3.88 ± 0.24
SAGGSALYIPPGTEHTVLIKLKDDDRYYEAKVTRVYPTSIEVEVEDPLTGEKKRYTINATDIELGDSAGGSA [r15_381_TrMRF] | 2.14 ± 0.12 | 2.18 ± 0.18 | 2.24 ± 0.07
SAGGSAGGSAMTAREIADELVKEGKEVKVTVRRPGEEKEITVTKEGEPLPPGAEIVKIEEVSAGGSAGGSAG [r3_421_TrROS_Hall] | -0.678 ± 0.19 | 0.0343 ± 0.14 | 0.187 ± 0.08
SAGGSSITVTDETTVEVSPTGSPTGPPVATVTTTTSTTTTTYYDPKTGTSTETTTTTTTTTTSTGASAGGSA [r2_269_JUSTAS] | 0.603 ± 0.067 | 0.382 ± 0.15 | 0.192 ± 0.11
SAGGSAGGSASMAPPEVLSLPVEILEKSPDGSVTVLVPETGEVLTFPSPKVNVTPDGTLNLSSAGGSAGGSA [r18_89_JUSTAS] | 0.416 ± 0.042 | 0.0808 ± 0.1 | -0.611 ± 0.16
SAGGSVTLPDATVVKVPPSQDWQEHADRLAAEIREAGADYEVSVESTPDGSVLITITVPGRTWTMVTSAGGS [r16_771_JUSTAS] | 1.15 ± 0.032 | 0.936 ± 0.03 | 0.49 ± 0.077
SAGGSAGKPVLVRVKLRLEFPGTGELAEAEVVVEADSIEDALDRVLKELTLPDFKAEVLDVKAIPLSAGGSA [r2_320_TrMRF] | 2.1 ± 0.11 | 2.16 ± 0.13 | 2.03 ± 0.029
SAGNITIEWEEYEDYRVIKITIPYKSPQQAPEEIESIIRKLGFPPNMKIEDIEVDPEEGHVEITIYIKSAGG [r19_186_TrROS] | 3.85 ± 0.12 | 4.47 ± 0.085 | 4.65 ± 0.083
SMPPLGEETTLLETIELPEKLTVEIRRVTLPNGVPLIEVSKTDPSGNTTPIFRAPGNDPAALAAARAALASA [r9_1069_JUSTAS] | 0.438 ± 0.078 | 0.262 ± 0.21 | -0.0163 ± 0.47
SAGSGPGETKLVEEVEIDPVGPIKDSNGNPRPIKVVTKKLVEVTILEDGTVEKKVLETVVETLPPDVPLSAG [r5_132_JUSTAS] | -0.498 ± 0.23 | -0.662 ± 0.51 | -0.575 ± 0.1
SAGGSAGGSAGGENDWIPIRMEMTFKLPNGVKITIKMEMWVQPDGDILGMRIHDIEIEVPSAGGSAGGSAGG [r7_356_TrROS] | 3.6 ± 0.21 | 4.54 ± 0.21 | 4.75 ± 0.12
SAGGSAKGLKVTFSHPDVEILSVKSYPGLGLAEVEFRYGDKLYRALVRFEPDDGGIAEATVEPVPGSAGGSA [r15_297_TrMRF] | 1.58 ± 0.024 | 2.55 ± 0.079 | 2.844 ± 0.026
SAGGKVVKTKEEAEKLVKEGKAEVVSVKKVKVPVNGKEKEVEVLEVKIKDKKTKKEKTIVLTKEQLKSAGGS [r16_271_TrROS_Hall] | -0.319 ± 0.36 | -0.894 ± 0.78 | -0.863 ± 0.27
SAGGSAGGPLPLEELRRLLESRPDYEILSVEDESPDYVVVTVRFPFPLPSDEERTLRLRLRFPLSAGGSAGG [r6_152_TrMRF] | 2.23 ± 0.056 | 3.08 ± 0.094 | 3.374 ± 0.031
SAGGSEKKVLVLKFRHPENDKPLFSVRIVLEKPPEDSYKAKIELLDLPEDYVLSPEAIKAILEALKSAGGSA [r2_7_TrMRF] | 2.05 ± 0.036 | 2.3 ± 0.11 | 2.58 ± 0.11
SAGGSAGGSAKHRVDDIQPQRHKNPDGEKPVRVRFPDNGQEERIPADNLDDIDVSDGMEVEPSAGGSAGGSA [r18_288_TrROS] | -1.8 ± 0.45 | -0.855 ± 0.2 | -0.631 ± 0.044
SAGGSAGGSAGGKMYLIKVKVDGEEKLIKVKSLEEAKKLLEEKGYKIESVEIFEVEEEEESAGGSAGGSAGG [r7_726_TrROS_Hall] | 4.14 ± 0.23 | 4.09 ± 0.073 | 4.07 ± 0.059
SAGGGMNISVDPNQSVTIPVTRIENGVPVETTVTISLPAGSTISPEGDNIIINYPHTGQTITLPTTLISAGG [r13_275_JUSTAS] | 1.36 ± 0.043 | 0.862 ± 0.041 | -0.174 ± 0.1
SAGMITISEEEARELGVPIGASEEEIKEALAARLREEGYKVEFPSVVKEKVDPKTGKVEYKIDINLKPLSAG [r5_23_JUSTAS] | 1.3 ± 0.051 | 0.807 ± 0.18 | -0.104 ± 0.48
SAGGSAGGSAGGKNKYYVRVKIKNPNGRTRKINFPFDDPDQIKEQAQKEGWKIDEVEPVSAGGSAGGSAGGS [r10_882_TrROS] | -0.319 ± 0.25 | -0.121 ± 0.18 | -0.064 ± 0.29
SAGGSAGGSAGMVTVGDTEVVIEKDPNSDKYTVTVTPADGTTETLTFDSEEEVERYIEAKSAGGSAGGSAGG [r11_238_JUSTAS] | 1.49 ± 0.051 | 1.61 ± 0.052 | 1.7 ± 0.035
